# According to article PMC3964825 (Biochemistry, 2013):
# Several values for one entry are separate records, joined by “and”; a condition that tells them apart may be missing. Identical values can stand only once.
# B1: EZH2-EED heterodimer (FLAG-EZH2–6×HIS-EED) (complex)
# chain 1: not shown
# chain 2: not shown
# Assays:
# [1] = molecular target: the molecule itself; assay: native MS
# [2] = molecular target: the molecule itself; assay: native gel or EMSA
protein,measurement,setting,value
B1,stoichiometry N,[1],2 and 3
same,stoichiometry N,[2],≤ 4
